Measured values taken from patent US20210388097A1 (SORRENTO THERAPEUTICS, published 2021).

Target: T1, human APRIL protein (R&D Systems, catalog #5860-AP-010/CF) (human, UniProt O75888 105-250, limits assumed)
T1 construct: Bought protein; also called human APRIL protein from R&D Systems; TNF13
T1 sequence (looked up): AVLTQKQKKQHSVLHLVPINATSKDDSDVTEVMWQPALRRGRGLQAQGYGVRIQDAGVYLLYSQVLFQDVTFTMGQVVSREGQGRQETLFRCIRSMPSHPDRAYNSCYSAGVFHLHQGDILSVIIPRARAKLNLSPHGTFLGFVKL
Assay: bio-layer interferometry, APRIL on AR2G sensor, BCMA-mouse Fc in solution
Procedure: Bio-layer interferometry was also used to measure binding between APRIL protein, and wild type or mutant BCMA proteins. Human APRIL protein (R&D Systems, catalog #5860-AP-010/CF) was loaded onto an Ar2G sensor (OctetRET96e) and reacted with 2.5 μg/mL of one of three types of human BCMA proteins including: wild type human BCMA-mouse Fc (SEQ ID NO:5), mutant-1 human BCMA-mouse Fc (17G-18G; SEQ ID NO:6), or mutant-2 human BCMA-mouse Fc (de132-35G; SEQ ID NO:7).

B1: Mutant-1 human BCMA protein-mouse Fc (Fc fusion)
chain: MLQMAGQCSQNEYFDSGGHACIPCQLRCSSNTPPLTCQRYCNASVTNSVKGTNAGLGGLVDYKDDDDKTHTCPPCKCPAPNLLGGPSVFIFPPKIKDVLMISLSPIVTCVVVDVSEDDPDVQISWFVNNVEVHTAQTQTHREDYNSTLRVVSALPIQHQDWMSGKEFKCKVNNKDLPAPIERTISKPKGSVRAPQVYVLPPPEEEMTKKQVTLTCMVTDFMPEDIYVEWTNNGKTELNYKNTEPVLDSDGSYFMYSKLRVEKKNWVERNSYSCSVVHEGLHNHHTTKSFSRTPGK
notes: also called mutant-1 human BCMA-mouse Fc (17G-18G); mutant-1 BCMA protein
binding result: no binding (tested: 2.5 µg/mL)
